Test results: patent publication US20200352839

Tested on: Compound E7 (CTP-Cas1-FINA)

Substance: caspase-1
- HPLC analysis after treatment with caspase-1 (cleavage): the compound is cleaved into two moieties, that is, finasteride and the protein transduction domain
